The data set deals with the molecule itself. Description: SEC-MALS; hTH-RD in the absence of amino acid ligand (Supplementary Fig. S2C). (In general: In gel filtration, larger molecules generally elute earlier.)

The stoichiometry N is a count of units in the complex or per binding partner.

B1: regulatory domain of human tyrosine hydroxylase (hTH-RD), residues 65-160 (domain or fragment, UniProt P07101 96-191, looked up)
chain: GDPLEAVAFEEKEGKAVLNLLFSPRATKPSALSRAVKVFETFEAKIHHLETRPAQRPRAGGPHLEYFVRLEVRRGDLAALLSGVRQVSEDVRSPAG
notes: tyrosine hydroxylase (TH), human, regulatory domain, residues 65-160; which isoform the numbers count on is told only by GenBank number 88900503; Vector pFB-Lic-Bse; source: insect sf9 cells, purified (as the PAH domains); not shown: His6, N-terminal, cleaved
With B1, the “stoichiometry N” value amounted to 2.

These data come from paper PMC4822156, “Structural basis for ligand-dependent dimerization of phenylalanine hydroxylase regulatory domain” (Scientific Reports, 2016).
